Values of other authors as cited in publication PMC3589724 (Scientific Reports, 2013).
Positions count from the first letter of the chain named. Names and notes keep the numbering of the source.

B1: S41A Nm mutant: Nm point mutant S41A (literature) (protein, UniProt P06837 1-227, looked up, variant S41A)
Neuromodulin: MLCCMRRTKQVEKNDEDQKIEQDGVKPEDKAHKAATKIQAAFRGHITRKKLKGEKKGDAPAAEAEAKEKDDAPVADGVEKKEGDGSATTDAAPATSPKAEEPSKAGDAPSEEKKGEGDAAPSEEKAGSAETESAAKATTDNSPSSKAEDGPAKEEPKQADVPAAVTDAAATTPAAEDAATKAAQPPTETAESSQAEEEKDAVDEAKPKESARQDEGKEDPEADQEHA
B2: Phe-to-Trp substitution: Nm with Phe-to-Trp substitution at Phe42 (literature) (protein, UniProt P06837 1-227, looked up, variant F42W)
Neuromodulin: B1 Neuromodulin with A41S, F42W

What was measured:
CaM [1] = settings: in vitro, PC12B cells
CaM [2] = settings: position Phe42

Row | Molecule | Ca^2+ sensitivity of interaction with CaM (CaM [1]) | association of Nm with the membrane skeleton (PC12B cells) | increase in Nm-CaM affinity on Phe-to-Trp substitution (CaM [2]) [fold]
1 | B1 | insensitive to Ca^2+ concentrations in vitro | inhibiting the association of Nm with the membrane skeleton of PC12B cells | 
2 | B2 |  |  | 10
